Assay results: publication PMC6733452

Experiments:
Experiment in all cases: cross-linking + ELISA
[1] = molecular target: TcpP-HSV (wild-type, from pEK41) (V. cholerae) (UniProt P29485)
TcpP-K102E (V. cholerae) = TcpP-K102E (V. cholerae) (UniProt P29485)
TcpP-N99D (V. cholerae) = TcpP-N99D (V. cholerae) (UniProt P29485)

Substance: ToxR-L107A (chromosomally expressed) (from UniProt P15795 1-294) (natural protein)
- percent reduction in TcpP interaction relative to wild-type ToxR [1]: 70%

Substance: ToxR-T91A (chromosomally expressed) (from UniProt P15795 1-294) (natural protein)
- percent reduction in TcpP interaction relative to wild-type ToxR [1]: 45%

Substance: ToxR (wild-type, expressed from the chromosomal toxR locus) (from UniProt P15795 1-294) (natural protein)
- percent reduction in ToxR interaction relative to wild-type TcpP-HSV (TcpP-K102E (V. cholerae)): 50%
- percent reduction in ToxR interaction relative to wild-type TcpP-HSV (TcpP-N99D (V. cholerae)): 50%

Substance: ToxR-Y96A (chromosomally expressed) (from UniProt P15795 1-294) (natural protein)
- percent reduction in TcpP interaction relative to wild-type ToxR [1]: 40%

Substance: ToxR-V97A (chromosomally expressed) (from UniProt P15795 1-294) (natural protein)
- percent defect in TcpP interaction relative to wild-type ToxR [1]: > 60%
